Assay results taken from US12486322 (ANNEXON, dated 2025).

Key:
human C1q [1] = target: T1, human C1q (human, UniProt P02745 23-245; P02746 28-253; P02747 29-245); test: cell-based or functional assay
human C1q [2] = target: T1, human C1q; test: cell-based or functional assay; remark: listed apart in the source
[3] = target: T2, Cynomolgus serum derived C1q (cynomolgus monkey, UniProt A0A2K5WJV6 23-243; A0A2K5WNK0 28-253); test: cell-based or functional assay
human C1q [4] = target: T1, human C1q; test: sandwich ELISA, C1q from human serum captured by JL-1
Description: (§1) Evaluation of binding to serum derived C1q: We compared binding of anti-C1q molecules to C1q from monkey and human serum. Binding to serum derived C1q was preformed using a sandwich ELISA. In this assay, a monoclonal antibody specific to the collagen tail of C1q (JL-1, Abcam) was used to capture the C1q, and then detected using the anti-C1q antibodies, which bind to the globular head groups of C1q. […] Next day, the plates were washed with dPBS (pH 7.4) and blocked with dPBS buffer containing 3% bovine serum albumin (BSA). Diluted serum samples were added to the plates and incubated overnight shaking at 4° C. Human and monkey serum samples were used at 1:2000 dilution in assay buffer, dPBS containing 0.3% BSA and 0.1% tween. Following overnight incubation at 4 C, plates were warmed to room temperature for 2 hours. […] Plates were washed with dPBS with 0.05% tween and then incubated with alkaline phosphatase conjugated anti-human Fc or Kappa antibodies at 1:3000 dilution in assay buffer. Plates were then washed, and detected using an enzyme substrate (T2214, Thermo) and read in a plate reader. Counts were background subtracted and normalized to signal at highest concentration, % normalized values were plotted as a function of concentration for each of the antibodies. Data were fit using a 4-parameter logistic fit to derive $EC50$ of binding and plotted using GraphPad Prism.

[5] = target: T2, Cynomolgus serum derived C1q; test: sandwich ELISA, C1q from cynomolgus serum captured by JL-1
Description: as §1

human C1q [6] = target: T1, human C1q; test: direct ELISA, purified human C1q coated on the plate, luminescence
Description: Next day, plates are washed with dPBS thrice and blocked with 3% BSA/PBS for 1 hour at room temperature (RT). […] Following incubation for 1 hour at RT, plates are washed 4× with dPBS 0.05% Tween. Then, alkaline phosphatase (AP) conjugated secondary antibodies to human kappa (Abcam) and human FC (Jackson Immunoresearch), respectively at 2000-4000-fold dilution. After an additional 1 hour of incubation at RT, plates are washed 4× with dPBS 0.05% Tween and luminescence signal was developed with AP substrate (#T2214, Thermo Scientific). Luminescence counts were measured using a luminometer (Spectramax i3×, Molecular Devices). Raw counts were fit using a 4-parameter logistic to derive $EC50$ for human C1q binding (Prism, GraphPad).

[7] = target: T2, Cynomolgus serum derived C1q; test: sandwich ELISA, serum C1q captured by JL-1; cynomolgus against human serum
Description: as §1

human C1q [8] = target: T1, human C1q; test: sandwich ELISA, serum C1q captured by JL-1; the low end is tied to human serum by Table 1
Description: as §1

[9] = target: T2, Cynomolgus serum derived C1q; test: sandwich ELISA, serum C1q captured by JL-1; the high end is tied to cynomolgus serum by Table 1
Description: as §1

[10] = target: T2, Cynomolgus serum derived C1q; test: sandwich ELISA, serum C1q captured by JL-1; the high end is tied to the single-arm antibody by Table 1 (2.1)
Description: as §1

T1 sequence (P02745 23-245 limits assumed, chain 1 of 3): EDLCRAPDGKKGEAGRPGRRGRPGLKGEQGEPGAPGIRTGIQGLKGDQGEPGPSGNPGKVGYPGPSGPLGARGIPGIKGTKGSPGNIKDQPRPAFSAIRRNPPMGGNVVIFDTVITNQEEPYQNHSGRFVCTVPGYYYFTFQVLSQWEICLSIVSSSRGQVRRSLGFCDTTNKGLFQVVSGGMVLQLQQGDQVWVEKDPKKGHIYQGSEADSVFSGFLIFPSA
T1 sequence (P02746 28-253 limits assumed, chain 2 of 3): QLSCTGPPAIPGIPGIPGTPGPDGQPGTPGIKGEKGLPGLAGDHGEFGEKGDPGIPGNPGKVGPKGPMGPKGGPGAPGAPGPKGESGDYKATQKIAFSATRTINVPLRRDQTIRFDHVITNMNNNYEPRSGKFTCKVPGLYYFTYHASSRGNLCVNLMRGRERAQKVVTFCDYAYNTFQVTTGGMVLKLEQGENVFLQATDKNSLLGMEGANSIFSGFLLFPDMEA
T1 sequence (P02747 29-245 limits assumed, chain 3 of 3): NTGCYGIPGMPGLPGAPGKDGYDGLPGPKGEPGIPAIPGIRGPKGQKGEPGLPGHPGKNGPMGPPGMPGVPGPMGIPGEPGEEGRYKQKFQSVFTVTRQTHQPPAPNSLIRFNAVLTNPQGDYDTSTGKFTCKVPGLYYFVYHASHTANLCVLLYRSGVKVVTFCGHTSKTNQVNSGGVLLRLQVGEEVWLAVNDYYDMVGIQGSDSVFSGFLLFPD

- EC50 (human C1q [4]): 178 nM
- EC50 [5]: 378 nM
- EC50 (human C1q [6]): 0.05 nM
- Ratio Cyno:Human (binding EC50) [7]: 2.1
- EC50 (human C1q [8]): 150 to 400 nM
- EC50 [9]: 150 to 400 nM
- fold weaker binding EC50 in cynomolgus serum compared to human serum [10]: 1 to 2 fold
B1: anti-C1q single-arm antibody (with IgG4 and Fcγ receptor binding site mutation) (antibody)
light: DVQITQSPSSLSASLGERATINCRASKSINKYLAWYQQKPGKAPKLLIYSGSTLQSGIPARFSGSGSGTDFTLTISSLEPEDFAMYYCQQHNEYPLTFGQGTKLEIKRTVAAPSVFIFPPSDEQLKSGTASVVCLLNNFYPREAKVQWKVDNALQSGNSQESVTEQDSKDSTYSLSSTLTLSKADYEKHKVYACEVTHQGLSSPVTKSFNRGEC
heavy: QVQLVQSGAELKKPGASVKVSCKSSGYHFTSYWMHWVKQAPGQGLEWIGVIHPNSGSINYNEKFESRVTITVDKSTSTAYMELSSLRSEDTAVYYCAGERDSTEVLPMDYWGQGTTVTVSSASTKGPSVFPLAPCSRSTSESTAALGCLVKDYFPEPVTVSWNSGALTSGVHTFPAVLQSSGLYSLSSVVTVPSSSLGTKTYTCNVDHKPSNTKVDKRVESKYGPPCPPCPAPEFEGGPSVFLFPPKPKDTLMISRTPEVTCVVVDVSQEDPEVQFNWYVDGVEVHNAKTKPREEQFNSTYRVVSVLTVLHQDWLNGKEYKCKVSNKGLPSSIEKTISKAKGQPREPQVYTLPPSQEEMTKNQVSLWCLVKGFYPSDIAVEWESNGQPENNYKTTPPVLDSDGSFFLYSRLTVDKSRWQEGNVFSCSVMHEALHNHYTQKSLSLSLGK
chain: ESKYGPPCPPCPAPEFEGGPSVFLFPPKPKDTLMISRTPEVTCVVVDVSQEDPEVQFNWYVDGVEVHNAKTKPREEQFNSTYRVVSVLTVLHQDWLNGKEYKCKVSNKGLPSSIEKTISKAKGQPREPQVYTLPPSQEEMTKNQVSLSCAVKGFYPSDIAVEWESNGQPENNYKTTPPVLDSDGSFFLVSRLTVDKSRWQEGNVFSCSVMHEALHNHYTQKSLSLSLGK
notes: The third chain is the N-terminally truncated heavy chain (hinge-CH2-CH3, hole mutations); also called single-arm molecule; anti-C1q single-arm antibody (monovalent)
- IC50 for inhibition of serum hemolysis (human C1q [1]): 3 to 10 nM
- IC50 for hemolysis inhibition (nM), Human serum (human C1q [2]): 9.9 nM
- IC50 for hemolysis inhibition (nM), Cyno serum [3]: 5.5 nM
- IC50 for hemolysis inhibition, Ratio Cyno:Human [3]: 0.6
